One molecule from paper PMC3145109 can be followed below.

The data set deals with T1, KmtR (UniProt O53838 1-130).
T1 sequence: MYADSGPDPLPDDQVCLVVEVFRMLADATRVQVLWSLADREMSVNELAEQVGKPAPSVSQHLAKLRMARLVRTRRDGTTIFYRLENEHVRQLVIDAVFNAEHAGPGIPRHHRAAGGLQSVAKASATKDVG
Briefly: fluorescence anisotropy. In general terms: In fluorescence polarisation assays a small probe gives low polarisation when free and higher when bound to something large.

B1: PRv0286 32-mer (Rv0826 promoter) (dsDNA)
DNA 1: TCCATAGTGACAACGTGCGTAGTCAGAATTCG
DNA 2: CGAATTCTGACTACGCACGTTGTCACTATGGA
For B1, the binding result is on record as “no binding”.
